In the supplement of paper PMC12042874:
± gives the uncertainty stated by the source.

Assay: amyloid nucleation score (Sup35N fusion, yeast selection) (log enrichment); library NNK2; higher = more nucleation; inactive = no reads after selection
How it was run: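 The nucleation score is the log enrichment of output over input reads, calculated with DiMSum and centred on the mode score of non-aggregating sequences. Sequences with under 100 input reads were excluded. Reads came from Illumina sequencing of plasmid inserts from psi-negative yeast expressing Sup35N fused to peptides of 20 random codons, induced 24 hours with 100 μM copper sulfate and grown 7 days at 30°C without adenine and uracil.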
For PRQHYSNRGFCFSFILGVGM, the amyloid nucleation score was -0.327 ± 0.34.
VQDAFVYFNAELRWYDILGQ gave an amyloid nucleation score of -0.201 ± 0.37.
In the case of TPGLCSNL, the amyloid nucleation score is reported as -1.44 ± 1.
KAYLCSFMMCFLL gave an amyloid nucleation score of 6.803 ± 0.056.
Work on LARASKHCSEVLGDCLA yielded an amyloid nucleation score of 0.366 ± 0.8.
Work on VVEGGRFLVDSRWKVVSRGC yielded an amyloid nucleation score of -0.719 ± 0.38.
ILSFTGASNFVCYMIVAKAG showed an amyloid nucleation score of 6.386 ± 0.033.
With RDSKFRMPLKWKAFFMGVER the amyloid nucleation score was 1.17 ± 0.38.
VEFTRVGVRLSHDVPVHDRW gave an amyloid nucleation score of 3.95 ± 0.066.
THVECALMTYPDVYSDEGFI gave an amyloid nucleation score of -0.001 ± 0.32.
For RGEHRERCGDIGRYGMGRRA, the amyloid nucleation score was 1.27 ± 0.14.
Work on VVRGIRVTR yielded an amyloid nucleation score of 0.116 ± 0.28.
In the case of CDMFLSYLRT, the amyloid nucleation score is reported as 1.74 ± 0.23.
FVSFSSLTKTLWYRRRRMVR gave an amyloid nucleation score of -1.06 ± 1.1.
Substance SSFFLGLPPIREIGPWTTQR has an amyloid nucleation score of 0.168 ± 0.27.
For CVICDNYFILEAVF, the amyloid nucleation score was -0.771 ± 1.1.
FNLSGWLMSSIRNNFLVPG gave an amyloid nucleation score of -1.01 ± 0.61.
NDSFPRDNFVESWQACEILM showed an amyloid nucleation score of -0.78 ± 0.44.
In the case of VFYSWKKLVSVLTSRYGFHV, the amyloid nucleation score is reported as -0.965 ± 0.78.
AHQHWQRGFEEHPEIRFIHW gave an amyloid nucleation score of 4.29 ± 0.11.
In the case of TWFAHQMWCFSILQFITLKS, the amyloid nucleation score is reported as 0.867 ± 0.32.
CMWGVDQPCLTTLTEAVLKP gave an amyloid nucleation score of 1.96 ± 0.12.
In the case of TYKTGDACVLVLPPHMADPR, the amyloid nucleation score is reported as -0.446 ± 1.1.
For LTTPGQNLLILWTLSNMFMI, the amyloid nucleation score was “inactive”.
GYYYLFFILG gave an amyloid nucleation score of 4.78 ± 0.075.
GLNISPRMYCF showed an amyloid nucleation score of 0.002 ± 0.28.
SLFTYGVISDHMGNMVPWND showed an amyloid nucleation score of -0.352 ± 1.1.
Work on NLYAPGSIYSASFFRVMTLG yielded an amyloid nucleation score of -1.04 ± 0.48.
CRKCFT showed an amyloid nucleation score of 0.717 ± 0.4.
Work on IYCCISEWSNHTWV yielded an amyloid nucleation score of 6.175 ± 0.036.
RRGHVL gave an amyloid nucleation score of 1.82 ± 0.21.
In the case of SMGYYDLFELYPNRHGYYGF, the amyloid nucleation score is reported as “inactive”.
GVSSKKV showed an amyloid nucleation score of 4.768 ± 0.047.
Work on GLKNRVWL yielded an amyloid nucleation score of 1.05 ± 0.26.
AWSYVQFRTFYALTVPTSAL gave an amyloid nucleation score of -0.125 ± 0.38.
With EVLARR the amyloid nucleation score was 0.611 ± 0.46.
Substance VIDHLRCIETSVWGVVVWRI has an amyloid nucleation score of -0.148 ± 0.35.
KHEIQVS gave an amyloid nucleation score of 0.33 ± 0.56.
Work on RVYMWLWIGWCRIG yielded an amyloid nucleation score of 0.58 ± 0.51.
Work on NTFGLEILRGWSYVCLGRRR yielded an amyloid nucleation score of 5.323 ± 0.052.
For TMYLFGYEV, the amyloid nucleation score was 1.31 ± 0.35.
SNSLQFYDLKSCDWGVWRCE gave an amyloid nucleation score of 4.768 ± 0.038.
In the case of YWNQNCELTVFSN, the amyloid nucleation score is reported as “inactive”.
SSGRGIRLTLTVSIDRKKMG gave an amyloid nucleation score of -0.391 ± 0.4.
With CWTEY the amyloid nucleation score was -0.589 ± 0.3.
With HRFSLRNHCRSFSSGHLVHN the amyloid nucleation score was -1.24 ± 0.75.
For SCIMLIVPMINSAYAVLLWR, the amyloid nucleation score was -0.771 ± 0.62.
Work on SMFIVHSCSTWLTNNGLNHM yielded an amyloid nucleation score of 3.19 ± 0.16.
TVMYSGVG gave an amyloid nucleation score of 0.501 ± 0.46.
With LDINIFM the amyloid nucleation score was -0.304 ± 1.1.
For SYNDWGFMKVGCL, the amyloid nucleation score was -0.686 ± 0.39.
TVASTYVLVTCHRAFDQS gave an amyloid nucleation score of 3.46 ± 0.079.
Substance VGVYICFILGH has an amyloid nucleation score of 3.56 ± 0.14.
For MYVRVDFVFSNADRTWNPLK, the amyloid nucleation score was 3.76 ± 0.08.
Work on CQDSALALGDVFVPDKGVVR yielded an amyloid nucleation score of 0.36 ± 0.8.
YLNLYLYCVNSSNDSYV showed an amyloid nucleation score of 6.513 ± 0.031.
Work on TTLYGNSRFTVCMTKGW yielded an amyloid nucleation score of -0.271 ± 0.74.
In the case of VGLWLTRVPPFVYGYRGSVS, the amyloid nucleation score is reported as 0.165 ± 1.
Work on IHNPLVRY yielded an amyloid nucleation score of -0.366 ± 0.41.
For GKEIRNNITMCGYLMQNICD, the amyloid nucleation score was 2.85 ± 0.17.
With YQMVTCWAYDSQDIGSWCAG the amyloid nucleation score was -0.012 ± 1.1.
NTGGS gave an amyloid nucleation score of -0.51 ± 0.61.
FFTHTWLRRLKTLCVSFVPK gave an amyloid nucleation score of -0.516 ± 0.45.
In the case of LGICPFNGSLRS, the amyloid nucleation score is reported as -1.65 ± 1.1.
RSERPFAWVMALTFTCAGGL gave an amyloid nucleation score of 3.47 ± 0.11.
NADLMGIKSVKGS gave an amyloid nucleation score of -0.352 ± 1.1.
Substance RIFVIVAGNYYFLAGFGYLA has an amyloid nucleation score of -1.74 ± 0.64.
INGSYSGYLERFGGMLRWMV showed an amyloid nucleation score of 0.753 ± 0.52.
For CQRTTGALTSGWKPDDIGSV, the amyloid nucleation score was 0.192 ± 0.46.
Work on IYNMVSCIIDLCYDKTRHSR yielded an amyloid nucleation score of 3.85 ± 0.12.
With SAGYKLDSCTVYWGLACDSR the amyloid nucleation score was -0.366 ± 0.79.
TTGNQLKKCVDKCGGRSGGE gave an amyloid nucleation score of 0.938 ± 0.45.
Substance AIWSVLYGGRYTMPHSIFGA has an amyloid nucleation score of 0.448 ± 0.38.
With VARRGALNVRHFFPGKREV the amyloid nucleation score was 0.608 ± 0.47.
For KSQILACYNQLP, the amyloid nucleation score was 0.83 ± 0.48.
In the case of MFCRTRALSRTGPTGQLLRV, the amyloid nucleation score is reported as 3.56 ± 0.13.
In the case of LRRDL, the amyloid nucleation score is reported as -0.408 ± 0.63.
Work on RMEVEFFVPW yielded an amyloid nucleation score of 2.9 ± 0.11.
YNGRAIEHCQSMVSFRAVSR gave an amyloid nucleation score of -0.041 ± 0.6.
With SVSYSGDNH the amyloid nucleation score was -0.177 ± 1.
For SFIRMWKDRLYHRLVALNRV, the amyloid nucleation score was 1 ± 0.48.
Substance IIPRMLDMPLSVWQEIIRFW has an amyloid nucleation score of 0.45 ± 0.5.
In the case of RLYNSQFIKYWNFSSRCCLL, the amyloid nucleation score is reported as 3.51 ± 0.098.
For SHEMGGFHNSNL, the amyloid nucleation score was -1.56 ± 1.
FYFHEACPSRLHHTKSAIGK showed an amyloid nucleation score of -0.839 ± 0.78.
ISDSRLRKCVAPHSRDSGGH gave an amyloid nucleation score of 1.96 ± 0.19.
With RTIYFFLSWHFGSFIKFLKL the amyloid nucleation score was “inactive”.
